# Measurements taken from paper PMC1184076, “Modulation of p53 activity by IκBα: Evidence suggesting a common phylogeny between NF-κB and p53 transcription factors” (BMC Immunology, 2005).
# Molecular target: T1, GST-p53, purified, bacterially produced (UniProt P04637 1-393)
# T1 construct: p53 tumor suppressor protein; also called p53-pGEX; purified p53; source: bacteria, from a pGEX construct, purified
# Assay: pull-down; purified GST-p53 (or GST-c-Jun) incubated with purified His-IκBα in IP buffer (25 mM Hepes pH 7.5, 75 mM KCl, 2.5 mM MgCl2, 0.1 mM EDTA, 0.15% NP-40, 1 mM DTT); glutathione Sepharose beads; autoradiography of 32P-IκBα or Western blot for IκBα
# Details: both partners purified
# T1 sequence (P04637 whole entry): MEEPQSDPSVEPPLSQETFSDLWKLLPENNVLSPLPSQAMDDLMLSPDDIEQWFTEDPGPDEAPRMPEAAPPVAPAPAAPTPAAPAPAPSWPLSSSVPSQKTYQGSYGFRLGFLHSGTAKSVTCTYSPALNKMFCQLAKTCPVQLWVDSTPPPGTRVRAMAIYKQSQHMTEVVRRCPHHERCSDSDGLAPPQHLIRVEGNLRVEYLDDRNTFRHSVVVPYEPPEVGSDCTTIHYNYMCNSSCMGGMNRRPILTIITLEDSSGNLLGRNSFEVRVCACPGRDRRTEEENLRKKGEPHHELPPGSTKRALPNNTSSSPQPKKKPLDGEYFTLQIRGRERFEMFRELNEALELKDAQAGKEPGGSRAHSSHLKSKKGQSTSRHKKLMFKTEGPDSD
row,Binder,binding result
1,"[32P]-labeled 6xHis-tagged IκBα (His-IκBα), phosphorylated in vitro by p90rsk (natural protein, UniProt P25963 1-317, looked up, 32P-phosphate put on in vitro by p90rsk; site not stated, IκBα, wild type; also called [^32P]-labeled IκBα; purified bacterially-produced wild-type IκBα; source: bacterially produced, purified; labeled in vitro with [γ-32P]ATP and Xenopus laevis p90rsk) MFQAAERPQEWAMEGPRDGLKKERLLDDRHDSGLDSMKDEEYEQMVKELQEIRLEPQEVPRGSEPWKQQLTEDGDSFLHLAIIHEEKALTMEVIRQVKGDLAFLNFQNNLQQTPLHLAVITNQPEIAEALLGAGCDPELRDFRGNTPLHLACEQGCLASVGVLTQSCTTPHLHSILKATNYNGHTCLHLASIHGYLGIVELLVSLGADVNAQEPCNGRTALHLAVDLQNPDLVSLLLKCGADVNRVTYQGYSPYQLTWGRPSTRIQQQLGQLTLENLQMLPESEDEESYDTESEFTEFTEDELPYDDCVFGGQRLTL",binds
2,"6xHis-tagged IκBα (His-IκBα), purified, bacterially produced (natural protein, UniProt P25963 1-317, looked up, IκBα, wild type; also called purified IκBα protein; hexahistidine-tagged IκBα; source: bacterially produced, purified) MFQAAERPQEWAMEGPRDGLKKERLLDDRHDSGLDSMKDEEYEQMVKELQEIRLEPQEVPRGSEPWKQQLTEDGDSFLHLAIIHEEKALTMEVIRQVKGDLAFLNFQNNLQQTPLHLAVITNQPEIAEALLGAGCDPELRDFRGNTPLHLACEQGCLASVGVLTQSCTTPHLHSILKATNYNGHTCLHLASIHGYLGIVELLVSLGADVNAQEPCNGRTALHLAVDLQNPDLVSLLLKCGADVNRVTYQGYSPYQLTWGRPSTRIQQQLGQLTLENLQMLPESEDEESYDTESEFTEFTEDELPYDDCVFGGQRLTL",binds
